Some targets named below: [Gly]^2-glucagon (UniProt P01275); His^1-Ser^2-NPY (UniProt P01303); Glucagon (UniProt P01275).
Data set [1] has as its system peptides of the growth hormone releasing factor (GRF) family.

Chain of [Gly]^2-glucagon (P01275 whole entry, looked up): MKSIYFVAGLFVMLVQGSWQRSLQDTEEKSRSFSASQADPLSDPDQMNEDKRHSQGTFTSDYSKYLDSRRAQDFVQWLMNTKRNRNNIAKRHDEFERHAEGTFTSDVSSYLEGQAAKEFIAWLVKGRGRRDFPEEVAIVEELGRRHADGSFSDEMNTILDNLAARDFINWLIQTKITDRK
Chain of Glucagon (P01275 53-81): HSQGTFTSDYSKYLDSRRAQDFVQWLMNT

For the substance DP IV, the Km [M] of DP IV-catalyzed hydrolysis turned out to be 2.2e-05 M in data set [Gly]^2-glucagon, 6.8e-05 M with His^1-Ser^2-NPY and 3.8e-06 M in the data set with Glucagon.

On to recombinant human DP IV, wild type, for which the “hydrolysis (MALDI-TOF MS, capillary zone electrophoresis)” value in data set [1] is reported as “All peptides were hydrolyzed by porcine DP IV, recombinant human DP IV or DP IV activity of the human serum”.

The record behind these values is patent US20060234940.
